Kd data for five molecules are collected here from publication PMC10201443, “Site-directed biochemical analyses reveal that the switchable C-terminus of Rpc31 contributes to RNA polymerase III transcription initiation” (Nucleic Acids Research, 2022).

B4: Full-length Rpc34 protein with an N-terminal V5 epitope tag, Alexa 647-labeled (natural protein)
chain: MSGMIENGLQLSDNAKTLHSQMMSKGIGALFTQQELQKQMGIGSLTDLMSIVQELLDKNLIKLVKQNDELKFQGVLESEAQKKATMSAEEALVYSYIEASGREGIWSKTIKARTNLHQHVVLKCLKSLESQRYVKSVKSVKFPTRKIYMLYSLQPSVDITGGPWFTDGELDIEFINSLLTIVWRFISENTFPNGFKNFENGPKKNVFYAPNVKNYSTTQEILEFITAAQVANVELTPSNIRSLCEVLVYDDKLEKVTHDCYRVTLESILQMNQGEGEPEAGNKALEDEEEFSIFNYFKMFPASKHDKEVVYFDEWTI
modifications: Alexa Fluor 647 NHS Ester label (labeling efficiency ~0.8)

For experiment [1], the target named is B4. The experiment is described as follows: MST.
The target in experiment [2] is T1, Full-length Rpc34 protein with an N-terminal V5 epitope tag, Alexa 647-labeled (S. cerevisiae, UniProt P32910 1-317, Alexa Fluor 647 NHS Ester label (labeling efficiency ~0.8)).
T1 construct: Rpc34 of S. cerevisiae, full-length protein; also called Alexa647-labeled Rpc34; fluorescently-labeled Rpc34 protein; source: E. coli BL21 (DE3) RIL, purified (Ni-Sepharose, SUMO tag removed with Ulp1, second Ni-Sepharose passage)
T1 sequence (looked up): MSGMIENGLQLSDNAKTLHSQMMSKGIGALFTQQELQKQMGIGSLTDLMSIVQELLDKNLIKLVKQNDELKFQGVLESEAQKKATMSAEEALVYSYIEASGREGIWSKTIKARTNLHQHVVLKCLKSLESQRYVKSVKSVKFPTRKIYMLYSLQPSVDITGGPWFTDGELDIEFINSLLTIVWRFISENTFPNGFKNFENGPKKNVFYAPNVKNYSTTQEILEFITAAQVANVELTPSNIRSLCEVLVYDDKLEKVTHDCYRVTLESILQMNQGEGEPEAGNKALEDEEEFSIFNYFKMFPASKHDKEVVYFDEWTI
Kind of experiment: MST; Alexa647-labeled Rpc34 constant at 5 nM, unlabeled Rpc31 peptides titrated (WT 1.16 μM to 0.000035 μM); 5 mM sodium phosphate pH 8.0, 0.05% Tween 20; 25°C; MST-on time 5 s; three independent measurements. As to conditions: both partners purified.

Experiment [3] has as its target T2, Rpc31(aa 121–251)_Flag_ΔS151-G164 (S. cerevisiae, UniProt P17890 121-251, ΔS151-G164).
T2 sequence: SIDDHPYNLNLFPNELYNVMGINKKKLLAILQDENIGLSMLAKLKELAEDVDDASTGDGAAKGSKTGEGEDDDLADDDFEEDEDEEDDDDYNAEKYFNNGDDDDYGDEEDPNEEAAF
The experiment is described as follows: MST.

B1: Rpc31(121-251)-Flag_ΔG141-I150 (protein)
chain: SIDDHPYNLNLFPNELYNVMSKFNNADDVFTGTGLQDENIGLSMLAKLKELAEDVDDASTGDGAAKGSKTGEGEDDDLADDDFEEDEDEEDDDDYNAEKYFNNGDDDDYGDEEDPNEEAAF
Regarding B1, the Kd (in general, the constant that tells how readily two partners part at equilibrium) in experiment [1] is 4.4 µM.

B2: Rpc31(aa 121–251)_Flag (domain or fragment, S. cerevisiae, UniProt P17890 121-251, looked up)
chain: SIDDHPYNLNLFPNELYNVMGINKKKLLAISKFNNADDVFTGTGLQDENIGLSMLAKLKELAEDVDDASTGDGAAKGSKTGEGEDDDLADDDFEEDEDEEDDDDYNAEKYFNNGDDDDYGDEEDPNEEAAF
notes: Rpc31 of S. cerevisiae, C-terminal aa 121-251; also called Rpc31 C-terminal Ser121-Phe251 peptide; Rpc31 (aa 121–251) peptide; source: E. coli BL21 (DE3) RIL, purified (Ni-Sepharose, SUMO tag removed with Ulp1, second Ni-Sepharose passage, Source15Q); not shown: FLAG, C-terminal, kept
For the molecule B2, in experiment [2], binding was characterised by a dissociation constant (Kd) of 0.883 ± 0.339 µM.

B3: Rpc31(aa 121–251)_Flag_E183K (domain or fragment, S. cerevisiae, UniProt P17890 121-251, looked up)
chain: SIDDHPYNLNLFPNELYNVMGINKKKLLAISKFNNADDVFTGTGLQDENIGLSMLAKLKELAKDVDDASTGDGAAKGSKTGEGEDDDLADDDFEEDEDEEDDDDYNAEKYFNNGDDDDYGDEEDPNEEAAF
notes: Rpc31 of S. cerevisiae, C-terminal aa 121-251 with E183K; the methods describe only the wild-type construct; also called Rpc31 peptide with a Glu183Lys (E183K) point mutation; source: E. coli, recombinantly expressed and purified; not shown: FLAG, C-terminal, kept
For the molecule B3, the affinity in experiment [2], expressed as Kd, was 8.5 ± 5.6 µM.

In experiment [3], B4 registered a Kd of 6.1 µM.

B5: Rpc31(121-251)-Flag_ΔL165-V185 (protein)
chain: SIDDHPYNLNLFPNELYNVMGINKKKLLAISKFNNADDVFTGTGDDASTGDGAAKGSKTGEGEDDDLADDDFEEDEDEEDDDDYNAEKYFNNGDDDDYGDEEDPNEEAAF
B5: binding in experiment [1] was put at a Kd of 1.2 µM.
